Experimental data: US8133978 (GlaxoSmithKline, dated 2012)

T1: Human interleukin-18 (recombinant human IL-18) (human, UniProt Q14116 37-193)
T1 construct: also called hIL-18
T1 sequence: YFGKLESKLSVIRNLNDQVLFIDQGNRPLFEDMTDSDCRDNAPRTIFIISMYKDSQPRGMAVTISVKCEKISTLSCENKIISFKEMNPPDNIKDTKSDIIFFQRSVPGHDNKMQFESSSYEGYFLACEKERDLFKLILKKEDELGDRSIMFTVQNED


Assays:
[1] = molecular target: T1, Human interleukin-18 (recombinant human …); experiment: SPR, Biacore 3000, antibody captured on Protein A, 25 C
Experimental: Biacore™ kinetic analysis of the humanised 2C10 antibodies was carried out on a Biacore™ 3000 instrument using Protein A capture of the antibodies in HBS-EP buffer (Biacore™). Briefly, Protein A was immobilised on a CM5 chip by primary amine coupling, using manufacturers recommended protocol, to densities around 2000-4000 resonance units (RU's). Humanised antibody was then passed over the Protein A surface and captured to levels of around 200-500 RU's, after a period of stabilisation, IL-18 (human or Rhesus) was passed over the captured antibody surface at defined concentrations and binding sensorgrams were obtained. […] All curves were double referenced against a buffer injection instead of IL-18 and the data was fitted to the 1:1 binding model using the global fit parameters in BiaEval 4.1. Off-rate ranking experiments were set up using the same Protein A capture method, however, only a single concentration of IL-18 was used (10 nM). Whilst the data was fitted using the same binding model as the kinetic analysis, since only one concentration of analyte was used on the off-rate is reported, this value is useful for ranking rather than giving an exact kinetic measurement and was used as a way of selecting which antibodies would be further investigated. […]

[2] = molecular target: T2, Rhesus IL-18 (rhesus (rhesus/cynomolgus)); experiment: as above
T2 construct: also called Rhesus/Cynomolgus IL-18; rhesus/cynomolgus IL-18
Experimental: (§1) Biacore™ kinetic analysis of the humanised 2C10 antibodies was carried out on a Biacore™ 3000 instrument using Protein A capture of the antibodies in HBS-EP buffer (Biacore™). Briefly, Protein A was immobilised on a CM5 chip by primary amine coupling, using manufacturers recommended protocol, to densities around 2000-4000 resonance units (RU's). Humanised antibody was then passed over the Protein A surface and captured to levels of around 200-500 RU's, after a period of stabilisation, IL-18 (human or Rhesus) was passed over the captured antibody surface at defined concentrations and binding sensorgrams were obtained. […] All curves were double referenced against a buffer injection instead of IL-18 and the data was fitted to the 1:1 binding model using the global fit parameters in BiaEval 4.1. Off-rate ranking experiments were set up using the same Protein A capture method, however, only a single concentration of IL-18 was used (10 nM). Whilst the data was fitted using the same binding model as the kinetic analysis, since only one concentration of analyte was used on the off-rate is reported, this value is useful for ranking rather than giving an exact kinetic measurement and was used as a way of selecting which antibodies would be further investigated.
(§2) Based upon these observations selected antibodies were investigated in greater detail for binding to human and Rhesus IL-18 at 37° C. The data shown in Table 4b for human IL-18 is the mean (and standard deviation) of six separate determinations.

[3] = molecular target: T1, Human interleukin-18 (recombinant human …); experiment: ELISA, human IL-18 captured by 16D10, antibody titrated
Experimental: ELISA with all nine humanised variants was carried out at least 6 times using various batches of purified antibody preparation. FIGS. 4A-4C show representative data from one experiment which generated the EC50 value ranking illustrated in Table 7. Human IL-18 was immobilized on Nunc Maxisorp 96-well plates using 2.5 µg/ml of 16D10 (non-neutralising mouse monoclonal antibody) to capture 5 ng/ml of recombinant human IL-18. Anti-IL-18 humanised antibodies were added at various dilutions. Bound humanised antibodies were detected using anti-human IgG Fc specific peroxidase conjugate (Sigma A0170).

[4] = molecular target: T2, Rhesus IL-18; experiment: Rhesus IL18 binding ELISA, antibody titrated, OD 490 nm
[5] = molecular target: T1, Human interleukin-18 (recombinant human …); experiment: SPR, Biacore 3000, antibody captured on Protein A, 37 C
Experimental: as §1, §2

[6] = molecular target: T2, Rhesus IL-18; experiment: as above
Experimental: as §1, §2

[7] = molecular target: T1, Human interleukin-18 (recombinant human …); experiment: ELISA, antibody on plate, human IL-18 captured, detected by 16D10; room temperature, blocking buffer
Experimental: (§3) ELISA was carried out with the three Humanised H1 variants; H1L1, H1L2 and H1L3 to assess binding to human IL-18 at room temperature and at 37° C. in both human serum and in block solution (PBS 0.05% TWEEN with 1% BSA (w/v)). The Humanised antibody variants were immobilised on Nunc Maxisorp 96-well plates at 2.5 µg/ml. Capture of 5 ng/ml of recombinant human IL-18 was carried out either at room temperature or 37° C. in human serum or block solution. Anti-IL-18 mouse monoclonal antibody 16D10 was added. The bound mouse antibody was detected using anti-mouse kappa peroxidase conjugate (Serotec MCA 1291P). Representative EC50 values generated from the study data are illustrated in Table 9.

[8] = molecular target: T1, Human interleukin-18 (recombinant human …); experiment: ELISA, antibody on plate, human IL-18 captured, detected by 16D10; 37 C, in serum
Experimental: as §3

[9] = molecular target: T1, Human interleukin-18 (recombinant human …); experiment: SPR, Biacore T100, antibody captured on Protein A, 20 C
Experimental: (§4) The methodology was basically the same as for the method used in Example 4a above; Protein A was immobilised on a CM5 chip at densities of between 2000-6000 RU's by primary amine coupling. Runs were carried out in HBS-EP (Biacore™). The anti-IL-18 antibodies were captured to densities of between 100-500 RUs, human IL-18 was passed over this captured surface at concentrations between 16-0.0625 nM, with 0 nM concentration (i.e., a buffer only injection of captured antibody) used for double referencing. Regeneration after each injection of IL-18 was by mild acidic elution using two injections of 10 mM glycine, pH1.5. […] The binding curves obtained were analysed using the analysis software inherent to the T100 machine using the 1:1 model of binding. Runs were carried out at the temperatures indicated.
(§5) This experiment was carried out using the above method at various temperatures. […] Table 5 details the kinetic values used to create these figures.

[10] = molecular target: T1, Human interleukin-18 (recombinant human …); experiment: ELISA, antibody on plate, human IL-18 captured, detected by 16D10; room temperature, in serum
Experimental: as §3

[11] = molecular target: T1, Human interleukin-18 (recombinant human …); experiment: SPR, Biacore T100, antibody captured on Protein A, 32 C
Experimental: as §4, §5

[12] = molecular target: T1, Human interleukin-18 (recombinant human …); experiment: SPR, Biacore T100, antibody captured on Protein A, 25 C
Experimental: as §4, §5

[13] = molecular target: T1, Human interleukin-18 (recombinant human …); experiment: SPR, Biacore T100, antibody captured on Protein A, 15 C
[14] = molecular target: T1, Human interleukin-18 (recombinant human …); experiment: ELISA, antibody on plate, human IL-18 captured, detected by 16D10; 37 C, blocking buffer
Experimental: as §3

[15] = molecular target: T1, Human interleukin-18 (recombinant human …); experiment: cell-based or functional assay
[16] = molecular target: T1, Human interleukin-18 (recombinant human …); experiment: SPR, Biacore T100, Protein A capture, 25 C, mean n = 4
Experimental: as §4
(§6) These experiments were carried out as described above. Table 6 details the kinetic parameters obtained. […] H1L2 has a better on-rate (ka) than H1L1.

[17] = molecular target: T1, Human interleukin-18 (recombinant human …); experiment: SPR, Biacore T100, Protein A capture, 37 C, mean n = 6
Experimental: as §4, §6

[18] = molecular target: T1, Human interleukin-18 (recombinant human …); experiment: SPR, Biacore T100, antibody captured on Protein A, 37 C
Experimental: as §4, §5

Binder	Kd [1] [nM]	Kd [2] [nM]	EC50 [3] [µg/mL]	also measured
H2L2 humanised anti-IL-18 antibody (antibody, human IgG1, kappa, V domains shown, Human IgG1 / kappa) VH: QVQLVQSGAEVKKPGASVKVSCKVSGEISTGYYFHWVRRRPGKGLEWMGRIDPEDDSTKYAERFKDRVTMTEDTSTDTAYMELSSLRSEDTAVYYCTTWRIYRDSSGRPFYVMDAWGQGTLVTVSS VL: DIQMTQSPSSVSASVGDRVTITCLASEDIYTYLTWYQQKPGKAPKLLIYGANKLQDGVPSRFSGSGSGTDYTLTISSLQPEDFATYYCLQGSKFPLTFGQGTKLEIKR	0.0201	0.104	0.012	
H1L1 humanised anti-IL-18 antibody (antibody, human IgG1, kappa, V domains shown, Human IgG1 / kappa) VH: QVQLVQSGAEVKKPGASVKVSCKVSGEISTGYYFHWVRQAPGKGLEWMGRIDPEDDSTKYAERFKDRVTMTEDTSTDTAYMELSSLRSEDTAVYYCTTWRIYRDSSGRPFYVMDAWGQGTLVTVSS VL: DIQMTQSPSSVSASVGDRVTITCLASEDIYTYLTWYQQKPGKAPKLLIYGANKLQDGVPSRFSGSGSGTDFTLTISSLQPEDFATYYCLQGSKFPLTFGQGTKLEIKR	0.0332	0.38	0.01	EC50 [7]: 0.00331 µg/mL; EC50 [8]: 0.0121 µg/mL; Kd [9]: 0.0237 nM; EC50 [10]: 0.0102 µg/mL; Kd [11]: 0.0472 nM; Kd [12]: 0.0311 nM; Kd [13]: 0.0201 nM; EC50 [14]: 0.00343 µg/mL; % change vs 2C10 (IC50, KG-1 bioassay) [15]: 269%; Kd [16]: 0.0331 nM; Kd [17]: 0.0943 nM; Kd [18]: 0.0533 nM
H2L3 humanised anti-IL-18 antibody (antibody, human IgG1, kappa, V domains shown, Human IgG1 / kappa) VH: QVQLVQSGAEVKKPGASVKVSCKVSGEISTGYYFHWVRRRPGKGLEWMGRIDPEDDSTKYAERFKDRVTMTEDTSTDTAYMELSSLRSEDTAVYYCTTWRIYRDSSGRPFYVMDAWGQGTLVTVSS VL: DIQMTQSPSSVSASVGDRVTITCLASEDIYTYLTWYQQKPGKAPQLLIYGANKLQDGVPSRFSGSGSGTDYTLTISSLQPEDEGDYYCLQGSKFPLTFGQGTKLEIKR	0.0238		0.016	
H2L1 humanised anti-IL-18 antibody (antibody, human IgG1, kappa, V domains shown, Human IgG1 / kappa) VH: QVQLVQSGAEVKKPGASVKVSCKVSGEISTGYYFHWVRRRPGKGLEWMGRIDPEDDSTKYAERFKDRVTMTEDTSTDTAYMELSSLRSEDTAVYYCTTWRIYRDSSGRPFYVMDAWGQGTLVTVSS VL: DIQMTQSPSSVSASVGDRVTITCLASEDIYTYLTWYQQKPGKAPKLLIYGANKLQDGVPSRFSGSGSGTDFTLTISSLQPEDFATYYCLQGSKFPLTFGQGTKLEIKR	0.0335	0.627	0.021	

The next lines start with results.

Kd [1] [nM]	Kd [2] [nM]	EC50 [3] [µg/mL]	Binder	also measured
0.0242		0.009	H3L3 humanised anti-IL-18 antibody (antibody, human IgG1, kappa, V domains shown, Human IgG1 / kappa) VH: QVQLVQSGAEVKKPGASVKVSCKVSGEISTGYYFHFVRRRPGKGLEWMGRIDPEDDSTKYAERFKDRVTMTADTSTDTAYMELSSLRSEDTATYFCTTWRIYRDSSGRPFYVMDAWGQGTLVTVSS VL: DIQMTQSPSSVSASVGDRVTITCLASEDIYTYLTWYQQKPGKAPQLLIYGANKLQDGVPSRFSGSGSGTDYTLTISSLQPEDEGDYYCLQGSKFPLTFGQGTKLEIKR	EC50 (read off the curve) [4]: ~0.03 µg/mL; Kd [5]: 0.11 nM; Kd [6]: 0.0756 nM
0.0194	0.149	0.013	H3L1 humanised anti-IL-18 antibody (antibody, human IgG1, kappa, V domains shown, Human IgG1 / kappa) VH: QVQLVQSGAEVKKPGASVKVSCKVSGEISTGYYFHFVRRRPGKGLEWMGRIDPEDDSTKYAERFKDRVTMTADTSTDTAYMELSSLRSEDTATYFCTTWRIYRDSSGRPFYVMDAWGQGTLVTVSS VL: DIQMTQSPSSVSASVGDRVTITCLASEDIYTYLTWYQQKPGKAPKLLIYGANKLQDGVPSRFSGSGSGTDFTLTISSLQPEDFATYYCLQGSKFPLTFGQGTKLEIKR	
0.0165	0.0596	0.008	H3L2 humanised anti-IL-18 antibody (antibody, human IgG1, kappa, V domains shown, Human IgG1 / kappa) VH: QVQLVQSGAEVKKPGASVKVSCKVSGEISTGYYFHFVRRRPGKGLEWMGRIDPEDDSTKYAERFKDRVTMTADTSTDTAYMELSSLRSEDTATYFCTTWRIYRDSSGRPFYVMDAWGQGTLVTVSS VL: DIQMTQSPSSVSASVGDRVTITCLASEDIYTYLTWYQQKPGKAPKLLIYGANKLQDGVPSRFSGSGSGTDYTLTISSLQPEDFATYYCLQGSKFPLTFGQGTKLEIKR	Kd [5]: 0.105 nM; Kd [6]: 0.0643 nM
